Target: Full-length Human cytomegalovirus glycoprotein B (FL-gB), Strep-tagged (Human cytomegalovirus (FIX7 BAC))
Assay: negative-stain electron microscopy; purified FL-gB on a glow-discharged carbon grid, 2% uranyl formate, 2D class averages

“Full-length Human cytomegalovirus glycoprotein B (FL-gB), Strep-tagged (natural protein)” was tested, and the stoichiometry N was 3.
